According to CN115232208A (SHANGHAI JUNSHI BIOSCIENCES CO LTD; JUNMENG BIOSCIENCES CO …, dated 2022):

Tests used:
[1] = target: T1, 重组人BLyS蛋白 (recombinant human BLyS protein) (human, UniProt Q9Y275 134-285); experiment: Blocking ELISA, human BLyS coated, competition with human BR3
T1 construct: Recombinant human BLyS coated on hydrophobic ELISA plates; also called B淋巴细胞刺激因子; BAFF

[2] = target: 人可溶性BLyS (human soluble BLyS) (human, UniProt Q9Y275 134-285); experiment: cell-based or functional assay

Row | IC50 [1] [µg/mL] | IC50 of inhibition of the NF-κB signal downstream of human BLyS binding TACI (luciferase reporter gene assay) [2] [µg/mL] | Binder
1 | 1.24 | 0.0376 | H482L472 (antibody, human IgG1, kappa, V domains shown, also called UBP1213sc (its formulation); UBP1213) VH: EVQLVESGGGLVQPGGSLRLSCAASGFTFSDAWMDWVRQAPGKGLEWVGEIRNKANNHATYQAESVKGRFTISRDDSKNSVYLQMNSLKTEDTAVYYCTRAPFDLLVRRGYYIMDYWGQGTLVTVSS VL: DIQMTQSPSSLSASVGDRVTITCRTSQDISIYLNWYQQKPGKAPKLLIYYTSRLRSGVPSRFSGSGSGTDFTLTISSLQPEDFATYFCQQGSTLPWTFGGGTKLEIKR
2 | 0.858 | 0.0293 | H483L473 (antibody, human IgG1, kappa, V domains shown) VH: EVQLVESGGGLVKPGGSLRLSCAASGFTFSDAWMDWVRQAPGKGLEWVGEIRNKANNHATYQAESVKGRFTISRDDSKSTVYLQMNSLKTEDTAVYYCTRAPFDLLVRRGYYIMDYWGQGTLVTVSS VL: DIQMTQSPSSLSASVGDRVTITCRTSQDISIYLNWYQQKPGKAPKLLIYYTSRLRSGVPSRFSGSGSGTDFTFTISSLQPEDIATYFCQQGSTLPWTFGGGTKLEIKR
3 | 1.27 | 0.0315 | H484L474 (antibody, human IgG1, kappa, V domains shown) VH: EVQLVESGGGLVQPGGSLRLSCAASGFTFSDAWMDWVRQAPGKGLEWVAEIRNKANNHATYQAESVKGRFTISRDDSKSSVYLQMNSLRAEDTAVYYCTRAPFDLLVRRGYYIMDYWGQGTLVTVSS VL: DIQMTQSPSSVSASVGDRVTITCRTSQDISIYLNWYQQKPGKAPKLLIYYTSRLRSGVPSRFSGSGSGTDFTLTISSLQPEDFATYFCQQGSTLPWTFGGGTKLEIKR
